Measured values from patent EP1298214A2, “Plant thioesterases” (Calgene LLC, priority 1990, dated 1991).

Assays:
[1] = system: Cuphea C10 acyl-ACP thioesterase; assay: Cuphea thioesterase substrate specificity at the hydroxyapatite stage (Example 9A); format: biochemical, Cuphea hookeriana; conditions: hydroxyapatite stage in purification
Description: Following the same general procedures as outlined in Example 1, to assay for C10 thioesterase activity, the following mixture is incubated at 30° for 10-60 min: 50µl sample to be tested in the same or similar "extraction buffer" described in Example 9A, and approximately 250pmol of [^14C]-radiolabeled acyl-ACP substrate, (usually decanoyl-ACP is labeled in the carboxylate group to 50-60µCi/µmol) in a total volume of […], for a final decanoyl-ACP concentration of 0.5-5.0µM, typically 5.0µM. The reaction is stopped by adding 0.5ml 10% (v/v) cold (4°) acetic acid and placing the reaction mixture on ice for a few minutes. The fatty acid product of the hydrolytic enzyme action is extracted away from the unhydrolyzed substrate by adding 2ml diethyl ether and mixing vigorously. The ether is transferred to 5ml scintillation fluid for scintillation counting. Additional ether extracts may be performed to recover remaining traces of product for more accurate quantitation of the activity if desired.
The resulting preparation is then subjected to hydroxyapatite column chromatography. The following method applies to ammonium sulfate fraction from 100g fresh weight of starting seed tissue. The dialyzed ammonium sulfate fraction (35-40ml) is applied to a column of hydroxyapatite (2.5cm x 14cm bed height of Bio-Gel HTP from Bio-Rad Inc.; Richmond, CA, catalog no. 130-0420), equilibrated in 50mM KH2PO4-KOH pH 6.9, 10% (v/v) glycerol, 4mM 2-mercaptoethanol. The column is then washed (flow rate 1.5ml/min throughout) with 280ml of the same buffer. Elution is accomplished with a 580ml linear gradient from these conditions to 350mM KH2PO4-KOH pH 6.9, 10% (v/v) glycerol, 4mM 2-mercaptoethanol, collecting fractions of 12ml volume. The eluted fractions are assayed for hydrolase activity using decanoyl-ACP as substrate. […]
The substrate specificity of Cuphea C10 acyl-ACP thioesterase towards medium-chain acyl-ACP's has been determined at the hydroxyapatite stage in purification, as described in Example 9A: Table 6

[2] = molecular target: T1, Bay C12-preferring acyl-ACP thioesterase (Umbellularia californica, UniProt Q41635); assay: Bay thioesterase substrate specificity as a function of chain length, ammonium sulfate fraction; format: biochemical; parameters: The cotyledons from such seeds are dissected from the other seed parts and stored frozen at -70°; This comprises the source tissue for enzyme extraction; from tissue; host or cells: immature seed cotyledons of Umbellularia californica; conditions: C8-ACP activity set to 1.0; label is acyl chain length of the acyl-ACP
T1 sequence (Q41635 84-382): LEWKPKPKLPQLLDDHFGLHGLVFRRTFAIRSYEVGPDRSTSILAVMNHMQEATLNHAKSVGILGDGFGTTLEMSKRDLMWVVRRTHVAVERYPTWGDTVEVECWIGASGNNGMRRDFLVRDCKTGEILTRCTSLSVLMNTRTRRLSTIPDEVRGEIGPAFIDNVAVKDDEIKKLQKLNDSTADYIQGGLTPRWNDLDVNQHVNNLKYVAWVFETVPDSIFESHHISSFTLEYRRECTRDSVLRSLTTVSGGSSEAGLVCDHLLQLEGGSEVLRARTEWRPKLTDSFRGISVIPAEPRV
Description: To assay for C12 thioesterase activity the following mixture is incubated at 30° for 30 min: "buffer" comprising 7mM KH2PO4-KOH pH 8, 20% v/v glycerol, 1mM dithiothreitol (DTT), 0.1% v/v Triton X100; sample to be tested for activity in the same or similar buffer as the "extraction buffer" described in Example 2; […] and final lauroyl-ACP concentration of 0.5µM. Lauroyl-ACP substrate is prepared according to the method of Rock et al (Methods in Enzymology (1981) 72:397-403), using ACP prepared from Escherichia coli by the method of Rock and Cronan (Methods in Enzymology (1981) 71:341-351). The laurate is radiolabeled in the carboxylate group at a specific radioactivity of 50-60µCi/µmol.
The reaction is stopped by adding 0.5ml cold (0°) 10% v/v acetic acid. The fatty acid product of the hydrolytic enzyme action is extracted away from the unhydrolyzed substrate by adding 1ml diethyl ether and mixing vigorously. After settling for a few minutes the upper ether layer is transferred to 5ml scintillation fluid for determination of radioactivity by liquid scintillation spectrometry. Additional ether extractions may be performed to recover remaining traces of the reaction product for more accurate quantitation of the enzyme activity if desired. The amount of ether-extracted radioactivity is a direct measure of C12-preferring acyl-ACP thioesterase activity, provided the amount of enzyme is not sufficient to hydrolyze more than about 25% of the substrate. With greater activity than this the relationship between radioactivity in the ether layer and the quantity of enzyme becomes markedly nonlinear. The enzyme preparation must then be diluted appropriately to bring the activity into the linear range of the assay.
The crude extract is subjected to ammonium sulfate fractionation as follows. Sufficient solid ammonium sulfate is gradually added with stirring over 30 min to achieve 70% saturation. The preparation is then stirred for a further 30 min. After centrifuging as described above, the pelleted material is resuspended in extraction buffer (2ml/g original tissue weight) and stirred for 10 min until dissolved. Ammonium sulfate is then added as before, but this time only sufficient to achieve 50% saturation. After centrifuging as before, the supernatant fraction is discarded. The pelleted material, which contains the C12-preferring acyl-ACP thioesterase, may be frozen by immersion in liquid nitrogen and then stored at -70° at this stage if desired. The resulting material is referred to as the "ammonium sulfate fraction." Very little of the C12-preferring acyl-ACP thioesterase activity is lost if the pellet is frozen very rapidly. […]

Row | Substance | Hydrolysis Activity (mean) [1] [pmol/min] | Relative Thioesterase Activity [2]
1 | 14:0-ACP | 4055 | 4.0
2 | 16:0-ACP | – | 4.7
3 | decanoyl-ACP [10:0-ACP] | 6950 | 2.7
4 | lauroyl-ACP [12:0-ACP] | 1032 | 24.0
